What was measured:
ELF-1 [1] = molecular target: T1, ELF-1 (UniProt P32519 1-619); experiment: EMSA; 2 mM HEPES-NaOH pH 7.9, 5 mM KCl, 2% glycerol, 0.01 mM EDTA, 0.25 mM DTT, 0.1 mg/ml BSA, 5 ng/ul poly dI-dC, 50 fmol probe, 40 min at 4 C; 4% native gel, 0.5x TBE; details: protein: ivt; label: 32P as probe; blunt
FLI-1 [2] = molecular target: T2, FLI-1 (UniProt Q01543 1-452); experiment: as above; details: protein: ivt; label: 32P as probe; blunt
T2 sequence: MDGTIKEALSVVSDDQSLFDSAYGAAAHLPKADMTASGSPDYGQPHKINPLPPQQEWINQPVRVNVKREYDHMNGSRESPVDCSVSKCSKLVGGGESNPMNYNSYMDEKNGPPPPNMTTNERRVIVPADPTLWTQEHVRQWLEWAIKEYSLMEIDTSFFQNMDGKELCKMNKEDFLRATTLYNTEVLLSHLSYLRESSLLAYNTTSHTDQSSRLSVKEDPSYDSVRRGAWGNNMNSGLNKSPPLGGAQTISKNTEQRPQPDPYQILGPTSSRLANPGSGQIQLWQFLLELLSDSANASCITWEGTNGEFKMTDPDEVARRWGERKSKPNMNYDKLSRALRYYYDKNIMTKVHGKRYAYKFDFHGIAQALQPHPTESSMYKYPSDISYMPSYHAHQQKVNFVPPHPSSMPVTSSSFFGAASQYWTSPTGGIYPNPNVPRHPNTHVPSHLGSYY

FLI-1 [3] = molecular target: T2, FLI-1; experiment: EMSA; supershift with anti-FLI-1; 2 mM HEPES-NaOH pH 7.9, 5 mM KCl, 2% glycerol, 0.01 mM EDTA, 0.25 mM DTT, 0.1 mg/ml BSA, 5 ng/ul poly dI-dC, 50 fmol probe, 40 min at 4 C; 4% native gel, 0.5x TBE; details: protein: ivt; label: 32P; blunt
ELF-1 [4] = molecular target: T1, ELF-1; experiment: EMSA; anti-ELF-1 inhibits, weak supershift; 2 mM HEPES-NaOH pH 7.9, 5 mM KCl, 2% glycerol, 0.01 mM EDTA, 0.25 mM DTT, 0.1 mg/ml BSA, 5 ng/ul poly dI-dC, 50 fmol probe, 40 min at 4 C; 4% native gel, 0.5x TBE; details: protein: ivt; label: 32P; blunt

T1 sequence (P32519 whole entry): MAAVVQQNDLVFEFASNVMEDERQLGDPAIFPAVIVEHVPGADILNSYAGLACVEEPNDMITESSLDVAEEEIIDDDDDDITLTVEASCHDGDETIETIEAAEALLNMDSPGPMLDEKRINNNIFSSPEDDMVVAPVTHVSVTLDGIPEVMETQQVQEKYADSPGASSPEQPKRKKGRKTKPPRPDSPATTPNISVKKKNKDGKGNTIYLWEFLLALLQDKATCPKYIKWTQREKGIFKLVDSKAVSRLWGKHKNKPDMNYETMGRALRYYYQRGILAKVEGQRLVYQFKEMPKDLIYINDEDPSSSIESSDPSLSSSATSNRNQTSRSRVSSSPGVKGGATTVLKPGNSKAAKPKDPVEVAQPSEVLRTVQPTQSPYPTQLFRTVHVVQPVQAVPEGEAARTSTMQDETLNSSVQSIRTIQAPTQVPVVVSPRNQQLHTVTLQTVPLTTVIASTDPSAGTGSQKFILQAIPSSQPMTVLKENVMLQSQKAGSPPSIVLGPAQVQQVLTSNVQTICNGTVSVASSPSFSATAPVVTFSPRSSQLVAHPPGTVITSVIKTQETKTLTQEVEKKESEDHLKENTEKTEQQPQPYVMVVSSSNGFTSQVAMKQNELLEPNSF

B1: -51 ETSmut (dsDNA)
DNA 1: CCCGGGTCGGTGGACTGGGCTG
DNA 2: CAGCCCAGTCCACCGACCCGGG
binding result (ELF-1 [1]): no binding | binding result (FLI-1 [2]): no binding

B2: -51 ETS (dsDNA)
DNA 1: CCCGGGTTTCCGGACTGGGCTG
DNA 2: CAGCCCAGTCCGGAAACCCGGG
binding result (FLI-1 [3]): binds | binding result (ELF-1 [4]): binds

Reference: article PMC3171469, “Multiple ETS Family Proteins Regulate PF4 Gene Expression by Binding to the Same ETS Binding Site”
